Assay results taken from patent US20140274782A1, “AFFINITY REAGENTS AND METHODS FOR DETECTION, PURIFICATION, AND PROTEOMIC ANALYSIS OF METHYLATED PROTEINS” (The Board of Trustees of the Leland Stanford Junior …, priority 2013, published 2014).

Experiments:
3×MBT domain of L3MBTL1 = experiment: Triple SILAC pull-down, 3xMBT/3xMBTD355N ratio (cytoplasmic, nuclear and chromatin fractions of 293T cells); assay type: binding, human; details: for 3xMBT/D355N UNC Heavy: experiment with UNC0638 in heavy SILAC media; for 3xMBT/D355N UNC Light: experiment with UNC0638 in light SILAC media;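 on all read-outs here: proteins quantified with MaxQuant, requiring at least two unique peptides and quantification in both label directions, normalized to the mean of proteins from a digested loading control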
G9a and GLP = target: T1, G9a and GLP (Homo sapiens, UniProt Q96KQ7+Q9H9B1); experiment: Triple SILAC pull-down after UNC0638 treatment of 293T cells, DMSO/UNC0638 ratio of protein captured by 3×MBT; assay type: cell-based; design: cells were treated for 24 hours with UNC0638 at 2.5 μM or DMSO vehicle control; endogenous in cells; host or cells: HEK 293T; details: for Relative to UNC0638 UNC Heavy: UNC0638 in heavy SILAC media; for Relative to UNC0638 UNC Light: UNC0638 in light SILAC media; for Relative to UNC0638 Average: average of UNC Light and UNC Heavy experiments;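 on all read-outs here: mass spectrometry (Q-Exactive) SILAC quantitation, DMSO/UNC0638 ratio computed after subtracting 3×MBTD355N mutant pull-down background, only proteins with at least twofold 3×MBT over mutant signal considered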
T1 sequence (Q96KQ7 2-1210 limits assumed): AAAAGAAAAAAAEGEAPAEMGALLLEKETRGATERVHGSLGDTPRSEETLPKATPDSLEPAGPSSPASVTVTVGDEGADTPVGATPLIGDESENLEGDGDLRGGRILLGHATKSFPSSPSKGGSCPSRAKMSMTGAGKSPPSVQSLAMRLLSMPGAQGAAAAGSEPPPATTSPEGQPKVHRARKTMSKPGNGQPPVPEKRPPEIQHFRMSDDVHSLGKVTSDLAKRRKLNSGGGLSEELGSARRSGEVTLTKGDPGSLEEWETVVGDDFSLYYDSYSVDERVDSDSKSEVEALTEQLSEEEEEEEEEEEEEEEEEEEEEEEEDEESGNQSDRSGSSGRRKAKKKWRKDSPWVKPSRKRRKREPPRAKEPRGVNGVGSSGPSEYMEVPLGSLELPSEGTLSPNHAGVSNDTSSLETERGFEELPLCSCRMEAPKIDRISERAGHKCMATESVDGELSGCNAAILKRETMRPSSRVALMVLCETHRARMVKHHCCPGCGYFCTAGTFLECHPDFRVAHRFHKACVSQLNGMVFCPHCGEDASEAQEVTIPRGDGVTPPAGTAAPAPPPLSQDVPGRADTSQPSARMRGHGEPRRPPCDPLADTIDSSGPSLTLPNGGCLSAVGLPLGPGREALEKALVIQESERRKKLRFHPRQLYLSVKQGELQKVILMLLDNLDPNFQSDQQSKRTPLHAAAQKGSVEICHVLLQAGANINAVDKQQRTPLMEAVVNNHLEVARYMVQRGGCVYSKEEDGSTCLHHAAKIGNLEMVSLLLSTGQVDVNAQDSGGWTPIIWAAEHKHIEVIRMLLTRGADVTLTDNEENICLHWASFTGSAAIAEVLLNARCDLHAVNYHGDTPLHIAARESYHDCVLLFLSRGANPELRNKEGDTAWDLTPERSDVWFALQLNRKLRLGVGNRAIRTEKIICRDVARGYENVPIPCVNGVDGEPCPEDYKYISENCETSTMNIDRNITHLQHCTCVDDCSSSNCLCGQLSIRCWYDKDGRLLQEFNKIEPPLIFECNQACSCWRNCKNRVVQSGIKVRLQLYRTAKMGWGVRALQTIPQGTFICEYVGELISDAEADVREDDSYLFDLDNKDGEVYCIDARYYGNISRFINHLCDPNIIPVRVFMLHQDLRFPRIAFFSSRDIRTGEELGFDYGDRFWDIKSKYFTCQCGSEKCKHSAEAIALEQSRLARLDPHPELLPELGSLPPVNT
T1 sequence (Q9H9B1 2-1298 limits assumed): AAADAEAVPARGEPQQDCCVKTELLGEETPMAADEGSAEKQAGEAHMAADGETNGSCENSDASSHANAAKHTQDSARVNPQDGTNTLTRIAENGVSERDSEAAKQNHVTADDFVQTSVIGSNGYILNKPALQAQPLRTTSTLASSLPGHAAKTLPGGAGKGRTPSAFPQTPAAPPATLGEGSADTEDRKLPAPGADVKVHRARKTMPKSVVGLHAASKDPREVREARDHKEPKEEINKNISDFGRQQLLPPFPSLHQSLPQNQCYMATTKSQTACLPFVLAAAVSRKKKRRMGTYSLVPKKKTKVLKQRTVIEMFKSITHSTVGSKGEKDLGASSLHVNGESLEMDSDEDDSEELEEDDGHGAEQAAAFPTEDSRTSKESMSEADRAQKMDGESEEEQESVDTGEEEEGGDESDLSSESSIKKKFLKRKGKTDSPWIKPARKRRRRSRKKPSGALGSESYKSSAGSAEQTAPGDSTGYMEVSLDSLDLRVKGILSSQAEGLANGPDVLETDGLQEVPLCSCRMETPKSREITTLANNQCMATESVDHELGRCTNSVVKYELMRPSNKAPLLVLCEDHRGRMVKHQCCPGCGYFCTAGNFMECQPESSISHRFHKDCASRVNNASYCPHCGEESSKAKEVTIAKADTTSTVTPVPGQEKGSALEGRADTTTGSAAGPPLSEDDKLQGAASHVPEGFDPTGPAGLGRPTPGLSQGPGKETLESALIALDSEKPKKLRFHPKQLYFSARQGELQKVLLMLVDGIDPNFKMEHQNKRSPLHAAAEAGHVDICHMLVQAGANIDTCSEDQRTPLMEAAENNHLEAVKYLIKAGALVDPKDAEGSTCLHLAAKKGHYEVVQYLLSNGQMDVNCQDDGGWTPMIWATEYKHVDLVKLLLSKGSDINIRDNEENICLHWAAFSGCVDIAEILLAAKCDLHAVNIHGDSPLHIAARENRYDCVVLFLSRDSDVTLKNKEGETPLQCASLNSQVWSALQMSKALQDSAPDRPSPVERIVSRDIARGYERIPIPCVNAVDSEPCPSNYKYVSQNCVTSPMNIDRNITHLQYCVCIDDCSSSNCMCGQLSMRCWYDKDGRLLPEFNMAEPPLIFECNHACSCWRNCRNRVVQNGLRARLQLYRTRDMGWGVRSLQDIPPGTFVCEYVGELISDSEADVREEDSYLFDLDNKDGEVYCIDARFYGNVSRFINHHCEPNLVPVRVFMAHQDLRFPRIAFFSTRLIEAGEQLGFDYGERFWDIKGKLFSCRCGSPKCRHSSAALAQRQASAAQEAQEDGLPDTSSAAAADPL

[1] = SILAC ratio 3xMBT vs 3xMBTD355N pull-down, 293T cells, all values in log base 2
[2] = SILAC ratio DMSO relative to UNC0638, pull-down with 3xMBT, all values in log base 2
[3] = SILAC ratio, pull-down 3xMBT vs 3xMBTD355N
[4] = SILAC ratio DMSO/UNC0638 of protein pulled down with 3xMBT

| Molecule | 3xMBT/D355N UNC Heavy (3×MBT domain of L3MBTL1; [1]) [log base 2] | 3xMBT/D355N UNC Light (3×MBT domain of L3MBTL1; [1]) [log base 2] | Relative to UNC0638 UNC Heavy (G9a and GLP; [2]) [log base 2] | Relative to UNC0638 UNC Light (G9a and GLP; [2]) [log base 2] | Relative to UNC0638 Average (G9a and GLP; all values in log base 2) [log base 2] | 3xMBT/D355N UNC Heavy (3×MBT domain of L3MBTL1; [3]) [log base 2] | 3xMBT/D355N UNC Light (3×MBT domain of L3MBTL1; [3]) [log base 2] | Relative to UNC0638 UNC Heavy (G9a and GLP; [4]) [log base 2] | Relative to UNC0638 UNC Light (G9a and GLP; [4]) [log base 2] | Relative to UNC0638 Average (G9a and GLP) [log base 2] | Candidate G9a/GLP target (G9a and GLP; reduced association with 3xMBT after UNC0638 treatment) |
| --- | --- | --- | --- | --- | --- | --- | --- | --- | --- | --- | --- |
| ORC5 (protein, UniProt O43913 1-435, looked up) Origin recognition complex …: MPHLENVVLCRESQVSILQSLFGERHHFSFPSIFIYGHTASGKTYVTQTLLKTLELPHVFVNCVECFTLRLLLEQILNKLNHLSSSEDGCSTEITCETFNDFVRLFKQVTTAENLKDQTVYIVLDKAEYLRDMEANLLPGFLRLQELADRNVTVLFLSEIVWEKFRPNTGCFEPFVLYFPDYSIGNLQKILSHDHPPEYSADFYAAYINILLGVFYTVCRDLKELRHLAVLNFPKYCEPVVKGEASERDTRKLWRNIEPHLKKAMQTVYLREISSSQWEKLQKDDTDPGQLKGLSAHTHVELPYYSKFILIAAYLASYNPARTDKRFFLKHHGKIKKTNFLKKHEKTSNHLLGPKPFPLDRLLAILYSIVDSRVAPTANIFSQITSLVTLQLLTLVGHDDQLDGPKYKCTVSLDFIRAIARTVNFDIIKYLYDFL | 1.97 | 2.52 | −2.12 | 0.06 | −1.03 |  |  |  |  |  |  |
| NUDT16L1 (protein, UniProt Q9BRJ7 1-211, looked up) Tudor-interacting repair …: MSTAAVPELKQISRVEAMRLGPGWSHSCHAMLYAANPGQLFGRIPMRFSVLMQMRFDGLLGFPGGFVDRRFWSLEDGLNRVLGLGLGCLRLTEADYLSSHLTEGPHRVVAHLYARQLTLEQLHAVEISAVHSRDHGLEVLGLVRVPLYTQKDRVGGFPNFLSNAFVSTAKCQLLFALKVLNMMPEEKLVEALAAATEKQKKALEKLLPASS |  |  |  |  |  | 1.84 | 1.77 | 0.57 | 0.28 | 0.43 | ✓ |
| CAND1 (protein, UniProt Q86VP6 2-1230, looked up) Cullin-associated …: ASASYHISNLLEKMTSSDKDFRFMATNDLMTELQKDSIKLDDDSERKVVKMILKLLEDKNGEVQNLAVKCLGPLVSKVKEYQVETIVDTLCTNMLSDKEQLRDISSIGLKTVIGELPPASSGSALAANVCKKITGRLTSAIAKQEDVSVQLEALDIMADMLSRQGGLLVNFHPSILTCLLPQLTSPRLAVRKRTIIALGHLVMSCGNIVFVDLIEHLLSELSKNDSMSTTRTYIQCIAAISRQAGHRIGEYLEKIIPLVVKFCNVDDDELREYCIQAFESFVRRCPKEVYPHVSTIINICLKYLTYDPNYNYDDEDEDENAMDADGGDDDDQGSDDEYSDDDDMSWKVRRAAAKCLDAVVSTRHEMLPEFYKTVSPALISRFKEREENVKADVFHAYLSLLKQTRPVQSWLCDPDAMEQGETPLTMLQSQVPNIVKALHKQMKEKSVKTRQCCFNMLTELVNVLPGALTQHIPVLVPGIIFSLNDKSSSSNLKIDALSCLYVILCNHSPQVFHPHVQALVPPVVACVGDPFYKITSEALLVTQQLVKVIRPLDQPSSFDATPYIKDLFTCTIKRLKAADIDQEVKERAISCMGQIICNLGDNLGSDLPNTLQIFLERLKNEITRLTTVKALTLIAGSPLKIDLRPVLGEGVPILASFLRKNQRALKLGTLSALDILIKNYSDSLTAAMIDAVLDELPPLISESDMHVSQMAISFLTTLAKVYPSSLSKISGSILNELIGLVRSPLLQGGALSAMLDFFQALVVTGTNNLGYMDLLRMLTGPVYSQSTALTHKQSYYSIAKCVAALTRACPKEGPAVVGQFIQDVKNSRSTDSIRLLALLSLGEVGHHIDLSGQLELKSVILEAFSSPSEEVKSAASYALGSISVGNLPEYLPFVLQEITSQPKRQYLLLHSLKEIISSASVVGLKPYVENIWALLLKHCECAEEGTRNVVAECLGKLTLIDPETLLPRLKGYLISGSSYARSSVVTAVKFTISDHPQPIDPLLKNCIGDFLKTLEDPDLNVRRVALVTFNSAAHNKPSLIRDLLDTVLPHLYNETKVRKELIREVEMGPFKHTVDDGLDIRKAAFECMYTLLDSCLDRLDIFEFLNHVEDGLKDHYDIKMLTFLMLVRLSTLCPSAVLQRLDRLVEPLRATCTTKVKANSVKQEFEKQDELKRSAMRAVAALLTIPEAEKSPLMSEFQSQISSNPELAAIFESIQKDSSSTNLESMDTS | 3.61 | 3.86 | −3.85 | 1.78 | −1.03 |  |  |  |  |  |  |
| SERBP1 (protein, UniProt Q8NC51 2-408, looked up) SERPINE1 mRNA-binding protein …: PGHLQEGFGCVVTNRFDQLFDDESDPFEVLKAAENKKKEAGGGGVGGPGAKSAAQAAAQTNSNAAGKQLRKESQKDRKNPLPPSVGVVDKKEETQPPVALKKEGIRRVGRRPDQQLQGEGKIIDRRPERRPPRERRFEKPLEEKGEGGEFSVDRPIIDRPIRGRGGLGRGRGGRGRGMGRGDGFDSRGKREFDRHSGSDRSSFSHYSGLKHEDKRGGSGSHNWGTVKDELTESPKYIQKQISYNYSDLDQSNVTEETPEGEEHHPVADTENKENEVEEVKEEGPKEMTLDEWKAIQNKDRAKVEFNIRKPNEGADGQWKKGFVLHKSKSEEAHAEDSVMDHHFRKPANDITSQLEINFGDLGRPGRGGRGGRGGRGRGGRPNRGSRTDKSSASAPDVDDPEAFPALA | −0.66 | −0.06 | −0.45 |  | −0.45 |  |  |  |  |  |  |
